Data as given in PMC6475063 (Journal of the American Heart Association: Cardiovascular …, 2019).

T1: YFP-tagged human AT1R (angiotensin II type 1 receptor) (human, UniProt P30556 1-359)
T1 sequence (looked up): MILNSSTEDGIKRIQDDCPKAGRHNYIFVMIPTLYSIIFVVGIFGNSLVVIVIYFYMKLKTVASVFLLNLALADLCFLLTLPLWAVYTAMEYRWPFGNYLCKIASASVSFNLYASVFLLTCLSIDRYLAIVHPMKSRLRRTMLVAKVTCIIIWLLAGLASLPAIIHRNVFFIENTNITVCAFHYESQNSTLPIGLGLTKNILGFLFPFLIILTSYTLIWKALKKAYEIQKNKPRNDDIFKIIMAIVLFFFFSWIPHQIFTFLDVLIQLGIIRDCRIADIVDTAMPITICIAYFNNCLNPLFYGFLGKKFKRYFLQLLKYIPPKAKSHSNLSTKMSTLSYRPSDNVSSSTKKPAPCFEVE

B1: RLuc-tagged bovine β-arrestin1 (natural protein, UniProt P17870 1-418, looked up)
chain: MGDKGTRVFKKASPNGKLTVYLGKRDFVDHIDLVEPVDGVVLVDPEYLKERRVYVTLTCAFRYGREDLDVLGLTFRKDLFVANVQSFPPAPEDKKPLTRLQERLIKKLGEHAYPFTFEIPPNLPCSVTLQPGPEDTGKACGVDYEVKAFCAENLEEKIHKRNSVRLVIRKVQYAPERPGPQPTAETTRQFLMSDKPLHLEASLDKEIYYHGEPISVNVHVTNNTNKTVKKIKISVRQYADICLFNTAQYKCPVAMEEADDTVAPSSTFCKVYTLTPFLANNREKRGLALDGKLKHEDTNLASSTLLREGANREILGIIVSYKVKVKLVVSRGGLLGDLASSDVAVELPFTLMHPKPKEEPPHREVPEHETPVDTNLIELDTNDDDIVFEDFARQRLKGMKDDKEEEEDGTGSPRLNDR
B2: RLuc-tagged bovine β-arrestin2 (natural protein, UniProt P32120 1-420, looked up)
chain: MGEKPGTRVFKKSSPNCKLTVYLGKRDFVDHLDKVDPVDGVVLVDPDYLKDRKVFVTLTCAFRYGREDLDVLGLSFRKDLFIANYQAFPPTPNPPRPPTRLQERLLRKLGQHAHPFFFTIPQNLPCSVTLQPGPEDTGKACGVDFEIRAFCAKSLEEKSHKRNSVRLVIRKVQFAPEKPGPQPSAETTRHFLMSDRSLHLEASLDKELYYHGEPLNVNVHVTNNSTKTVKKIKVSVRQYADICLFSTAQYKCPVAQVEQDDQVSPSSTFCKVYTITPLLSNNREKRGLALDGKLKHEDTNLASSTIVKEGANKEVLGILVSYRVKVKLVVSRGGDVSVELPFVLMHPKPHDHIALPRPQSAATHPPTLLPSAVPETDAPVDTNLIEFETNYATDDDIVFEDFARLRLKGLKDEDYDDQFC

Legend:
[1] = target: T1, YFP-tagged human AT1R (angiotensin II …); assay: FRET or BRET
[2] = target: T1, YFP-tagged human AT1R (angiotensin II …); assay: FRET or BRET; remark: listed apart in the source

Binder	relative change of BRET ratio, 2 min with Ang II [1]	relative change of BRET ratio, 5 min with Ang II [1]	relative change of BRET ratio, 10 min with Ang II [1]	relative change of BRET ratio, 20 min with Ang II [1]	relative change of BRET ratio, 30 min with Ang II [1]	EC50 of Ang II for the relative change of BRET ratio [2] [nmol/L]
B1	89.1 % (Ang II for 10 minutes set to 100%)	107 % (Ang II for 10 minutes set to 100%)	100 % (Ang II for 10 minutes set to 100%)	93.5 % (Ang II for 10 minutes set to 100%)	95.8 % (Ang II for 10 minutes set to 100%)	6.7
B2	89.7 % (Ang II for 10 minutes set to 100%)	102 % (Ang II for 10 minutes set to 100%)	100 % (Ang II for 10 minutes set to 100%)	112 % (Ang II for 10 minutes set to 100%)	93.9 % (Ang II for 10 minutes set to 100%)	6.3
